B1: OCTN2 carnitine transporter: N57/64/91Q (protein)
parent chain: MRDYDEVTAFLGEWGPFQRLIFFLLSASIIPNGFTGLSSVFLIATPEHRCRVPDAANLSSAWRNHTVPLRLRDGREVPHSCRRYRLATIANFSALGLEPGRDVDLGQLEQESCLDGWEFSQDVYLSTIVTEWNLVCEDDWKAPLTISLFFVGVLLGSFISGQLSDRFGRKNVLFVTMGMQTGFSFLQIFSKNFEMFVVLFVLVGMGQISNYVAAFVLGTEILGKSVRIIFSTLGVCIFYAFGYMVLPLFAYFIRDWRMLLVALTMPGVLCVALWWFIPESPRWLISQGRFEEAEVIIRKAAKANGIVVPSTIFDPSELQDLSSKKQQSHNILDLLRTWNIRMVTIMSIMLWMTISVGYFGLSLDTPNLHGDIFVNCFLSAMVEVPAYVLAWLLLQYLPRRYSMATALFLGGSVLLFMQLVPPDLYYLATVLVMVGKFGVTAAFSMVYVYTAELYPTVVRNMGVGVSSTASRLGSILSPYFVYLGAYDRFLPYILMGSLTILTAILTLFLPESFGTPLPDTIDQMLRVKGMKHRKTPSHTRMLKDGQERPTILKSTAF
B2: OCTN2 carnitine transporter: tunicamycin (0.5 µg/ml) (protein)
parent chain: B1 parent chain
B3: OCTN2 carnitine transporter: N57/91Q (protein)
parent chain: B1 parent chain
B4: OCTN2 carnitine transporter: N64/91Q (protein)
parent chain: B1 parent chain
B5: OCTN2 carnitine transporter: N57Q/N64Q (protein)
parent chain: B1 parent chain

Tests used:
[1] = anti-GFP Western band intensity, CHO membranes; conditions: glycan lost; control: wild-type OCTN2
[2] = confocal GFP vs Bodipy-ceramide, MetaMorph; conditions: glycan lost; control: wild-type OCTN2
[3] = Michaelis-Menten kinetics after 16 h tunicamycin, CHO; conditions: glycan lost; control: untreated cells
[4] = carnitine 0.5–100 µM uptake, Michaelis-Menten fit, CHO; conditions: glycan lost; control: wild-type OCTN2

Row | Protein | expression_or_secretion [1] | localisation_or_trafficking, other: percent of transporters at plasma membrane [2] | other: kinetic parameters of carnitine transport [3] | other: Vmax of carnitine transport [4]
1 | B1 | decreases | abolishes |  | 
2 | B2 |  |  | no change | 
3 | B3 |  | decreases |  | 
4 | B4 | decreases | decreases |  | decreases
5 | B5 | no change |  |  | 
